Results published in the supplement of paper PMC11908140.

B1: library; numbered along this chain (parent)
chain: MRKPRAAVGSGHRKQAASQEGRQKHAKNNSQAKPSACDGLARQPEEVVLQASVSSYHLFRDVAEVTAFRGSLLSWYDQEKRDLPWRRRAEDEMDLDRRAYAVWVSEVMLQQTQVATVINYYTGWMQKWPTLQDLASASLEEVNQLWAGLGYYSRGRRLQEGARKVVEELGGHMPRTAETLQQLLPGVGRYTAGAIASIAFGQATGVVDGNVARVLCRVRAIGADPSSTLVSQQLWGLAQQLVDPARPGDFNQAAMELGATVCTPQRPLCSQCPVESLCRARQRVEQEQLLASGSLSGSPDVEECAPNTGQCHLCLPPSEPWDQTLGVVNFPRKASRKPPREESSATCVLEQPGALGAQILLVQRPNSGLLAGLWEFPSVTWEPSEQLQRKALLQELQRWAGPLPATHLRHLGEVVHTFSHIKLTYQVYGLALEGQTPVTTVPPGARWLTQEEFHTAAVSTAMKKVFRVYQGQQPGTCMGSKRSQVSSPCSRKKPRMGQQVLDNFFRSHISTDAHSLNSAAQ

Variants of: B1
Assay: 8OG:A repair function score (normalized; synonymous = 0, nonsense = -1) (normalized log-likelihood score); higher = more repair activity (WT-like)
Settings: with 8OG:A DNA repair reporter (GFP) in HEK-293 MUTYH KO cells
In short: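 GFP+ (repair) and GFP− bins of viable mCherry+ cells were collected at 72 h from MUTYH knockout HEK-293 cells bearing lentiviral MUTYH cDNA NNN codon-scan libraries in 10 pg/ml doxycycline, co-transfected with an 8OG:A GFP repair reporter and mCherry. Tile amplicons were sequenced, and per-tile Rosace fitness scores were normalized to a repair function score anchored on synonymous and nonsense distributions. Synonymous medians were set to 0 and nonsense to -1, with variants under 300 counts per million at the start removed.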
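Also: cells sorted at 72 h after reporter transfection.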

8OG:A repair function score: each site, then its substitutions
R163: K -0.132; E -0.375; I -0.115; N -0.164; L -0.128; Q -0.143; T -0.128; Y -0.137; G -0.378; D -0.387; M -0.0916; S -0.122; C -0.00395; V -0.0917; P -0.887; H -0.238; A -0.182; W -0.296; F -0.174
R157: S -0.182; V -0.362; Q -0.117; T -0.216; Y -0.068; W -0.0111; P -1.11
L158: P -0.951; D -1.18; K -1.19; Q -1.31; N -1.2; H -0.935; W -0.991; V -0.372; C -0.573; E -1.05; M -0.194; Y -1.09; I -0.11; R -1.09; S -1.05; T -0.756; A -0.675; G -1.15; F -0.384
Q159: A -0.0252; E -0.416; Y 0.116; D -0.824; F 0.0628; P -0.377; N -0.144; V 0.0456; C 0.0194; T -0.0681; H 0.0232; W 0.287; L 0.127; I 0.0245; G -0.279; K 0.0628; S -0.121; M 0.0724; R 0.162
A162: V -0.278; P -1.19; Y -1.22; W -0.917; K -1.03; L -1; S -0.159; C -0.175; H -1.08; G -0.456; Q -0.953; I -0.523; R -1.02; M -0.887; N -0.917; E -1.14; T -0.155; F -1.26; D -1.2
G161: T -0.317; Q -0.911; A -0.00122; D -0.688; F -1.03; H -1.12; V -0.579; E -0.898; S -0.13; P -0.919; R -1.15; Y -1.04; M -0.776; K -1.07; L -1.01; W -1.19; C -0.293; N -0.325; I -0.841
V165: N -1.08; D -0.91; S -0.732; T -0.312; W -0.957; P -1.08; R -1.07; Q -0.882; K -1.13; I -0.0615; H -1.11; Y -1.15; M -0.283; A -0.341; L -0.0671; G -0.877; F -0.802; C -0.0561; E -1.11
K164: Y -0.0367; L 0.0383; R -0.0158; S -0.168; C -0.21; F 0.104; D -0.483; G -0.431; E -0.382; N -0.37; A -0.133; Q -0.101; P -1.12; M 0.168; T -0.103; H -0.186; V 0.027; W -0.0721; I 0.0586
E160: D -0.104; W 0.0263; F -0.0745; M 0.0471; L -0.0898; K -0.0797; I -0.0174; Y -0.063; H -0.264; A 0.0427; Q 0.018; C -0.0918; V -0.00913; R -0.136; G -0.116; P -0.814; T -0.0143; N -0.0629; S -0.0339
V166: H -0.183; A -0.1; G -0.466; C 0.0203; D -0.293; F -0.0998; I 0.0212; E -0.327
